This is an account of results in article PMC5389562.

Experiment [1] has as its target T1, mCherry-U2AF35, Q01081.
T1 chain: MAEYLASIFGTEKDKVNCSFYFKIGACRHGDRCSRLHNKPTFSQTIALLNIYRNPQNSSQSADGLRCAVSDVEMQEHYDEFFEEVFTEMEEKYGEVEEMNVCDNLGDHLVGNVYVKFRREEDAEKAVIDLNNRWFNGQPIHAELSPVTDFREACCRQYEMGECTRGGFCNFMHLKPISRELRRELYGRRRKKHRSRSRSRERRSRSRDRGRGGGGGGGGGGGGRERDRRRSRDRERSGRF
The experiment in a line: single-molecule photobleaching step counting (TIRF microscopy); nuclear extract in splicing conditions, no exogenous pre-mRNA, ATP depleted (−ATP), in the presence of ribonuclease; diluted and applied to cover slips; labeled protein spots bleaching in one or two steps. The conditions noted are these: remark: other sources report otherwise.

For experiment [2], the target named is T1, mCherry-U2AF35, Q01081. The experiment in a line: single-molecule photobleaching step counting (TIRF microscopy); nuclear extract in splicing conditions, no exogenous pre-mRNA, with ATP (+ATP), in the presence of ribonuclease; diluted and applied to cover slips; labeled protein spots bleaching in one or two steps. The conditions noted are these: remark: other sources report otherwise.

B1: mCherry-U2AF35, Q01081 1-240 (natural protein)
chain: MAEYLASIFGTEKDKVNCSFYFKIGACRHGDRCSRLHNKPTFSQTIALLNIYRNPQNSSQSADGLRCAVSDVEMQEHYDEFFEEVFTEMEEKYGEVEEMNVCDNLGDHLVGNVYVKFRREEDAEKAVIDLNNRWFNGQPIHAELSPVTDFREACCRQYEMGECTRGGFCNFMHLKPISRELRRELYGRRRKKHRSRSRSRERRSRSRDRGRGGGGGGGGGGGGRERDRRRSRDRERSGRF
B1: in the experiment with mCherry-U2AF35, Q01081 [1], the molecules bleaching in 1 step (of 2 versus 1 steps), −ATP is 189 molecules and the molecules bleaching in 2 steps (of 2 versus 1 steps), −ATP is 33 molecules. Besides, in the experiment with mCherry-U2AF35, Q01081 [2], the molecules bleaching in 1 step (of 2 versus 1 steps), +ATP is 218 molecules and the molecules bleaching in 2 steps (of 2 versus 1 steps), +ATP worked out at 21 molecules.
